Assay results reported in US20240043529A1, “METHODS AND COMPOSITIONS RELATED TO BCL2 AND BIM HETERODIMER ANTIBODIES” (Eutropics Pharmaceuticals, Inc., priority 2020, published 2024).
Positions count from the first letter of the chain named.

Tests used:
GST_Bc12 (Bc12 monomer) = target: T1, GST_Bc12 (Bc12 monomer) (human, UniProt P10415 1-218, limits assumed); test: ELISA, serially diluted hybridoma supernatant on glutathione plates
T1 construct: also called Bcl2 monomer; not shown: GST (glutathione S-transferase) fused at the N-terminus
T1 sequence (P10415 1-218 limits assumed): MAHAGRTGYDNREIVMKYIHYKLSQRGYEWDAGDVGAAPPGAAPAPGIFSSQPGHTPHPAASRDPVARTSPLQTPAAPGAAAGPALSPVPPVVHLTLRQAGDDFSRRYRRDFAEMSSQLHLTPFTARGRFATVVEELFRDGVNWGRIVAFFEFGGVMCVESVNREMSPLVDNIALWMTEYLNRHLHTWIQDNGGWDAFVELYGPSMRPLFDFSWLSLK
Method: (§1) This class of heterodimer specific Bc12:Bim reactive monoclonal antibodies are otherwise known as “HSB2B”. […] As controls, reactivity with Bc1xL:Bim, Bc12 and Bc1xL monomers, and bovine serum albumin (BSA) were also screened against. To adhere the Bc1xL and Bc12 to the plates, each was expressed as a recombinant fusion protein with GST at the N-terminus (i.e. GST_Bc12 and GST_Bc1xL). Once adhered to the plate, incubations were either performed with a Bim peptide (which fits into the BH3-binding pocket of Bc12 family members), or PBS (thus retaining the monomeric confirmation). Hybridomas supernatants were subsequently incubated with the coated antigens and detected with HRP conjugated anti-mouse IgG. The reaction was developed with TMB substrate and stopped with sulphuric acid. Gluathione plate wells were scanned using a wavelength filter with an optical density of 450 nanometres (OD₄₅₀).

[1] = target: T2, GST_Bc1xL (Bc1xL monomer) (human, UniProt Q07817 1-209); test: as above
T2 construct: also called BclxL monomer; not shown: GST (glutathione S-transferase) fused at the N-terminus
T2 sequence (Q07817 1-209): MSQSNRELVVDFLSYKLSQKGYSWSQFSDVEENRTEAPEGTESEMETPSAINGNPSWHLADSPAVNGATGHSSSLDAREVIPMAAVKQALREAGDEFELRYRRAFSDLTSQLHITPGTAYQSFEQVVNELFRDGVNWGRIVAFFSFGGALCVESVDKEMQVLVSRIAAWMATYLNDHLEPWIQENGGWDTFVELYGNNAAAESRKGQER
Method: as §1

[2] = target: T3, bovine serum albumin (BSA) (bovine, UniProt P02769 25-607); test: as above
T3 construct: Control antigen
T3 sequence (P02769 25-607 limits assumed): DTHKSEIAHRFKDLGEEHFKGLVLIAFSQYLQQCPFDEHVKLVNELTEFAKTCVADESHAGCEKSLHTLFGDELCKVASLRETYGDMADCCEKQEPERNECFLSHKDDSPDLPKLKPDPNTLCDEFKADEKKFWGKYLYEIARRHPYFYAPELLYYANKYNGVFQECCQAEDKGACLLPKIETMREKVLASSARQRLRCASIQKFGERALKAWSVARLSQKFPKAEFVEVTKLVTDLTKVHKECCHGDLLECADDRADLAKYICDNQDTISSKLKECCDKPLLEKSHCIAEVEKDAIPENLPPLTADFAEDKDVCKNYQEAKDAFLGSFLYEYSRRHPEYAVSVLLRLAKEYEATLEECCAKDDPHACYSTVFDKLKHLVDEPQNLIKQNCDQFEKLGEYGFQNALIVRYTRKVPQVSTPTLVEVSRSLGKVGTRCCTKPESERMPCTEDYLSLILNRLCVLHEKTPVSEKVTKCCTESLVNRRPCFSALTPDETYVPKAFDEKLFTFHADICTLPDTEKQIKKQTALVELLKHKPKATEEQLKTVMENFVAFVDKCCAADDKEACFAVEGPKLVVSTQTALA
Method: as §1

[3] = target: Bc12:Bim heterodimeric complex (Homo sapiens, UniProt P10415); test: ELISA of hybridoma supernatants on glutathione plates coated with GST_Bc12 complexed with Bim peptide; assay type: binding; conditions: for antigen reactivity of hybridoma supernatants (OD450): FIG. 1, serially diluted supernatants, controls Bc1xL:Bim, Bc12 and Bc1xL monomers, BSA; for hybridoma supernatant reactivity among a more exhaustive range of antigens: FIG. 2, antigens include Mcl1 monomer and Mc11:Bim heterodimeric forms
Chain of Bc12:Bim heterodimeric complex (P10415 whole entry, the tested form may be a part): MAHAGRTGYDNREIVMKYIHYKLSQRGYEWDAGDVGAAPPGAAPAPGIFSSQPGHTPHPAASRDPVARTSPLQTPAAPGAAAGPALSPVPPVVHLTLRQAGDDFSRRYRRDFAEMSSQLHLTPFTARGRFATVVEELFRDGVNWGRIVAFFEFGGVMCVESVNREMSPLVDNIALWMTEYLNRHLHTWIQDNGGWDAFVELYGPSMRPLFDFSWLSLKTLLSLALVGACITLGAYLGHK
Chain of Bc12:Bim heterodimeric complex (O43521 142-161 partner limits assumed): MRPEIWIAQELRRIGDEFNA
Method: This class of heterodimer specific Bc12:Bim reactive monoclonal antibodies are otherwise known as “HSB2B”. […] As controls, reactivity with Bc1xL:Bim, Bc12 and Bc1xL monomers, and bovine serum albumin (BSA) were also screened against. To adhere the Bc1xL and Bc12 to the plates, each was expressed as a recombinant fusion protein with GST at the N-terminus (i.e. GST_Bc12 and GST_Bc1xL). Once adhered to the plate, incubations were either performed with a Bim peptide (which fits into the BH3-binding pocket of Bc12 family members), or PBS (thus retaining the monomeric confirmation). Hybridomas supernatants were subsequently incubated with the coated antigens and detected with HRP conjugated anti-mouse IgG. The reaction was developed with TMB substrate and stopped with sulphuric acid. Gluathione plate wells were scanned using a wavelength filter with an optical density of 450 nanometres (OD450).
As a GST fusion protein (GST_Mc11), HSB2B hybridoma supernatant reactivity was tested against the Mc11 monomeric form, or the heterodimeric forms (created by, either, incubation of Bim peptide (as for FIG. 1), or by covalently linking the Bim peptide to the GST_Mc11). As for FIG. 1, the HSB2B mAbs show specific reactivity with the epitopes induced following the complexing of Bc12 with Bim.

[4] = test system: small cell lung cancer tissue; test: IHC on FFPE small cell lung cancer tissue; conditions: for cytoplasmic staining level (Mean Cytoplasmic OD) of tumor cells versus negative control: FIG. 4 (ii), four biopsy areas; for cytoplasmic staining level (Mean Cytoplasmic OD) of tumor cells versus negative control / cytoplasmic staining level of individual cells versus negative control: Mann Whitney ****p<0.001; for reactivity by IHC with small cell lung cancer tissue: FIG. 4, FFPE secondary (colon) tumor biopsy, anti-mouse IgG HRP, DAB; for cytoplasmic staining level of individual cells versus negative control: FIG. 5 (ii), three biopsy areas combined
Description: Serial sections of a FFPE secondary (colon) tumor biopsy were stained with the HSB2B clones or, as a negative control, no primary antibody (“neg control”). Antibody binding was detected with anti-mouse IgG HRP and developed using a DAB substrate to yield a brown stain. Nuclei were counterstained blue with Hematoxylin. Four corresponding biopsy areas (A-D) were imaged per biopsy for analysis. FIG. 4 (i) is a panel of images showing the magnitude of staining with each HSB2B mAb for one of the four biopsy areas acquired for each stained biopsy. […] Cellular architecture (middle row) was then defined using HALO image analysis software (left hand color key, TIL=tumor infiltrating lymphocytes), most importantly to define the location of the tumor cells. […] (ii) Dot plot/bar chart showing the cytoplasmic staining levels (Mean Cytoplasmic OD) for each of the tumor cells for the four different biopsy areas. The dots represent cytoplasmic staining intensities for individual cells. Medians and interquartile ranges are plotted. (Mann Whitney) statistical comparisons of staining intensity were performed between cells from HSB2B stained tissue and negative (neg) control tissue for each of the four areas of biopsy. ****p<0.001.
The present anti-BC12/BIM antibodies are labelled “HSB2B” and a clone number (see Table A); “HSBXB” is an antibody against Bc1-x1/Bim and “HSMCB” is an antibody against MCL-1/BIM. […] FIG. 5 (ii) is cytoplasmic staining levels of individual cells from three different biopsy areas were combined and plotted as dot/bar graphs. The dots represent cytoplasmic staining intensities for individual cells. Medians and interquartile ranges are plotted. (Mann Whitney) statistical comparisons of staining intensity were performed between cells from HSA stained tissue and negative (neg) control tissue. **** p<0.001. […] The acquisition of data following staining with different HSA classes is planned to be of clinical utility to determine the relative dependencies of different cancers on different Bc12 family members.

breast cancer tissue = test: IHC on FFPE breast cancer tissue; conditions: FIG. 6; biopsies of two breast cancer patients; three biopsy areas combined
Description: The present anti-BC12/BINI antibodies are labelled “HSB2B” and a clone number (see Table A); “HSBXB” is an antibody against Bc1-x1/Bim and “HSMCB” is an antibody against MCL-1/BIM. Using an analogous staining method to that described in FIG. 5, serial sections of two different patients' breast cancer biopsies (“Breast Cancer Patient 1 & 2”) were stained at the same time, under the identical conditions for relative reactivity with HSB2B mAbs 2H3 and 10C10, HSMCB and HSBXB. Cytoplasmic staining levels of individual cells from three different biopsy areas for each patient biopsy were combined and plotted as dot/bar graphs. […] The acquisition of data following staining with different HSA classes is planned to be of clinical utility to determine the relative dependencies of different cancers on different Bc12 family members.

Bc12:BAX heterodimers = Bc12:BAX heterodimers (Homo sapiens, UniProt P10415); test: ELISA reactivity with different Bc12 and Bc1_XL heterodimers; assay type: binding; conditions: FIG. 8; signal relative to Bc12:BIM heterodimer
Chain of Bc12:BAX heterodimers (P10415 whole entry): as the sequence (P10415 whole entry, the tested form may be a part) above
Chain of Bc12:BAX heterodimers (Q07812 whole entry partner): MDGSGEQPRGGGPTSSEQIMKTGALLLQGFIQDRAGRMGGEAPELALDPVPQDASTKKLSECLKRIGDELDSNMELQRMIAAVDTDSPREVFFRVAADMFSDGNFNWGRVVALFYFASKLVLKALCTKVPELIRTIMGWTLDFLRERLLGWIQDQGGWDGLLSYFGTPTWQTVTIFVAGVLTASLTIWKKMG
Description: (§2) All levels of reactivity are tabulated as percentage magnitudes of signal relative to those yielded with the Bc12:BIM heterodimer. […] 28A9 has low ABT199 cross-reactivity.

[5] = target: ABT199 in a heterodimer with Bc12 (Homo sapiens, UniProt P10415); test: as above; assay type: binding; conditions: FIG. 8; signal relative to Bc12:BIM heterodimer
Chain of ABT199 in a heterodimer with Bc12 (P10415 whole entry, one chain of several): as the sequence (P10415 whole entry, the tested form may be a part) above
Description: as §2

Bc12:BIM heterodimer = Bc12:BIM heterodimer (Homo sapiens, UniProt P10415); test: as above; assay type: binding; conditions: FIG. 8
Chain of Bc12:BIM heterodimer (P10415 whole entry): as the sequence (P10415 whole entry, the tested form may be a part) above
Chain of Bc12:BIM heterodimer (O43521 whole entry partner): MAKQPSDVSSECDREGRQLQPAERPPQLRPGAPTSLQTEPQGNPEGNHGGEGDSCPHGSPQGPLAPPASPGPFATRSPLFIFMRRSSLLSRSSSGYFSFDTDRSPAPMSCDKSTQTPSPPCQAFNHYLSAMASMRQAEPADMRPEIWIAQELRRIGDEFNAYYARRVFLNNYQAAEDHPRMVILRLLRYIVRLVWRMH
Description: as §2

B1: HSB2B clone 10C10F7 (antibody, V domains shown)
VH: QVQLQQPGAELVKPGASVKLSCKASGYTFTSYWMHWVKQRPGRGLEWIGRIDPNSGGTKSNEKFNNKATLTVDKSSSTAYMQLSSLTSEDSAVYYCARWWDYDYFDYWGQGTTLTVSS
VL: DIVMTQSPSSLTVTAGEKVTMSCKSSQSLLNSGNQKNYLTWYQQKPGQPPKLLIYWASTRESGVPDRFTGSGSGTDFTLTISNVQAEDLAVYYCQNDYNYPLTFGAGTKLELK
notes: Mouse IgG, tested as hybridoma supernatant; also called HSB2B mAb 10C10
- binding result (GST_Bc12 (Bc12 monomer)): no binding
- binding result [1]: no binding
- binding result [2]: no binding

B2: HSB2B clone 2H3G7 (antibody, V domains shown)
VH: B1 VH with A16T, K23Q, T30A, S60Y, N65K, N66S, A68V, S75P, T78A
VL: B1 VL with N37R, N83S, A106S
notes: Mouse IgG, tested as hybridoma supernatant; also called HSB2B mAb 2H3
- binding result (GST_Bc12 (Bc12 monomer)): no binding
- binding result [1]: no binding
- binding result [2]: no binding

B3: HSB2B clone 28A9D11 (antibody, V domains shown)
VH: DVQLQESGPGLVKPSQSLSLTCSVTGYSITSGYYWNWIRQFPGNKLEWMGYISYDGSNNYNPSLKNRISITRDTSKNQFFLKLNSVTTEDTATYYCARDGTTVVATLAYWGQGTLVTVSA
VL: QIVLTQSPAIMSASPGEKVTISCSASSSVSYMYWYQQKPGSSPKPWIYRTSNLASGVPARFSGSGSGTSYSLTISSMEAEDAATYYCQQYHSYPPTFGAGTKLELK
notes: Mouse IgG, tested as hybridoma supernatant
- binding result [1]: no binding
- binding result [2]: no binding

B4: 2H3: mouse IgG monoclonal antibody specific for the Bc12:Bim heterodimer; Hv SEQ ID NO: 25, Lv SEQ ID NO: 29 (antibody, V domains shown)
VH: B1 VH with A16T, K23Q, T30A, S60Y, N65K, N66S, A68V, S75P, T78A
VL: B1 VL with N37R, N83S, A106S
- antigen reactivity of hybridoma supernatants (OD450) [3]: specific for the Bc12:Bim heterodimeric complex
- hybridoma supernatant reactivity among a more exhaustive range of antigens [3]: specific reactivity for the Bc12:Bim complex
- cytoplasmic staining level (Mean Cytoplasmic OD) of tumor cells versus negative control [4]: higher level of cytoplasmic stain
- reactivity by IHC with small cell lung cancer tissue [4]: can react with small cell lung cancer tissue
- cytoplasmic staining level of individual cells versus negative control [4]: higher level of staining
- cytoplasmic staining level of individual cells versus negative control (breast cancer tissue): higher level of staining
- cross-reactivity with Bc12:BAX heterodimer (Bc12:BAX heterodimers): cross-reactivity between Bc12:BIM and Bc12:BAX heterodimers

B5: 10C10: mouse IgG monoclonal antibody specific for the Bc12:Bim heterodimer; Hv SEQ ID NO: 1, Lv SEQ ID NO: 5 (antibody, V domains shown)
VH: B1 VH
VL: B1 VL
- antigen reactivity of hybridoma supernatants (OD450) [3]: specific for the Bc12:Bim heterodimeric complex
- hybridoma supernatant reactivity among a more exhaustive range of antigens [3]: specific reactivity for the Bc12:Bim complex
- cytoplasmic staining level (Mean Cytoplasmic OD) of tumor cells versus negative control [4]: higher level of cytoplasmic stain
- reactivity by IHC with small cell lung cancer tissue [4]: can react with small cell lung cancer tissue
- cytoplasmic staining level of individual cells versus negative control [4]: higher level of staining
- cytoplasmic staining level of individual cells versus negative control (breast cancer tissue): higher level of staining
- cross-reactivity with Bc12:BAX heterodimer (Bc12:BAX heterodimers): cross-reactivity between Bc12:BIM and Bc12:BAX heterodimers

B6: 28A9: mouse IgG monoclonal antibody specific for the Bc12:Bim heterodimer; Hv SEQ ID NO: 17, Lv SEQ ID NO: 21 (antibody, V domains shown)
VH: B3 VH
VL: B3 VL
- antigen reactivity of hybridoma supernatants (OD450) [3]: specific for the Bc12:Bim heterodimeric complex
- ABT199 cross-reactivity [5]: low
- physiological heterodimer reactivity (selectivity) (Bc12:BIM heterodimer): restricted to Bc12:BIM
